The values below come from patent US20020123091A1.

A word on the pKi: it is the negative decadic logarithm of the Ki, by convention in mol/L.

pKi: −log10 of the molar value.

The target of experiment [1] is human kallikrein (Haematologic Technologies) (human) (UniProt P03952). Kind of experiment: cell-based or functional assay.
The target is the same in experiment [2]. Kind of experiment: apparent Ki (K1*) calculated from the IC50 as K1*=IC50/(1+(S/KM)), assuming competitive inhibition; chromogenic substrate S2305 1.8 mM, kallikrein 1.25 nM.

Sequence of human kallikrein (Haematologic Technologies) (human) (P03952 20-638 limits assumed): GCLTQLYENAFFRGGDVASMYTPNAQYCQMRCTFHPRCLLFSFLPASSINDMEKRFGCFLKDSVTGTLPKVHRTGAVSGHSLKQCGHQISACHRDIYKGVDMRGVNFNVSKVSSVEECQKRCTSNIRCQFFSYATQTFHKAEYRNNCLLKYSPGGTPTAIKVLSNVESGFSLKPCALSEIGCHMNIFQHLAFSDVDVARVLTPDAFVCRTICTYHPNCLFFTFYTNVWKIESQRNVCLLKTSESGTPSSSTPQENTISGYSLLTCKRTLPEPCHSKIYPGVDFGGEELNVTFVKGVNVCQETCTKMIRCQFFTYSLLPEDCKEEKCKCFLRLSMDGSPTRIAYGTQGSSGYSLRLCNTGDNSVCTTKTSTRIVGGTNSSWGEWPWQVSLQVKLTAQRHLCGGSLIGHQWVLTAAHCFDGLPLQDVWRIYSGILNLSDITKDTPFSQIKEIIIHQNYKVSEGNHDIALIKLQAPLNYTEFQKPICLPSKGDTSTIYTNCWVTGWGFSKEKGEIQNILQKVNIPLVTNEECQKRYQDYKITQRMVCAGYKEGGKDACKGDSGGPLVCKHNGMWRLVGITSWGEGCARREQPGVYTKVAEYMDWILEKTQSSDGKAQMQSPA

In experiment [1], “PRO256 polypeptide (from UniProt O43278 36-465)” returned an inhibition of kallikrein enzymatic activity toward chromogenic substrate S2305 (IC50) of 104 nM. Besides, the pKi in experiment [2] is 7.43.
